These results are taken from patent publication US20160090426A1 (WUHAN YZY BIOPHARMA, published 2016).

The term Kd denotes the concentration at which binding is half-saturated.

For experiment [1], the target named is T1, EpCAM on EpCAM-positive HCT116 cells (UniProt P16422 24-314, limits assumed).
T1 sequence (looked up): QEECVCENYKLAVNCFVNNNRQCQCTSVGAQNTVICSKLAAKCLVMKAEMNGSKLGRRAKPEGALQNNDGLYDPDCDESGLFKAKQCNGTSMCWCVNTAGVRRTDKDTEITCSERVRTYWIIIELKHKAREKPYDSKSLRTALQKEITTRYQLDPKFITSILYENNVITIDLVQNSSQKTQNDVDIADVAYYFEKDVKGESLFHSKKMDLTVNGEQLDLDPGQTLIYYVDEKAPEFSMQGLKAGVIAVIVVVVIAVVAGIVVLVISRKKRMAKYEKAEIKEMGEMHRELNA
Kind of experiment: cell-based or functional assay.

The target of experiment [2] is CD3 on CD3-positive Jurkat cells. Kind of experiment: cell-based or functional assay.
For experiment [3], the target named is T2, CD3 on CD3-positive Jurkat cells.
T2 construct: whole, on cells
The experiment can be described thus: flow cytometry on Jurkat cells, KD fitted from mean fluorescence intensity. On the procedure: (§1) Enough HCT116 cells are cultured, digested with 0.25% trypsin and then collected by centrifugation. In the meantime, the bispecific antibody was diluted according to the concentration beginning from 10 ug/ml and ten-fold gradient dilution to obtain twelve concentration gradients for later use.
Enough Jurkat suspension cells were cultured and collected by centrifugation. The same as the steps described in the example forementioned, in the following experimental process, the cells resuspended with 100 ul PBS were detected on an instrument, and the binding affinity KD value of the bispecific antibody and the Jurkat cells was analyzed and calculated according to the mean fluorescence intensity by using software GraphPadPrism 5.0.
On the technique in general: Flow cytometry measures light scatter and fluorescence of single cells or particles in a stream.

In experiment [4] the target is T1, EpCAM on EpCAM-positive HCT116 cells. Kind of experiment: flow cytometry on HCT116 cells, PE anti-human IgG Fc, KD fitted from mean fluorescence intensity. On the procedure:
as §1

B1: EpCAM×CD3 bispecific antibody M701 (bispecific antibody, human IgG1, kappa)
heavy: EVQLLEQSGAELVRPGTSVKISCKASGYAFTNYWLGWVKQRPGHGLEWIGDIFPGSGNIHYNEKFKGKATLTADKSSSTAYMQLSSLTFEDSAVYFCARLRNWDEPMDYWGQGTTVTVSSASTKGPSVFPLAPSSKSTSGGTAALGCLVKDYFPEPVTVSWNSGALTSGVHTFPAVLQSSGLYSLSSVVTVPSSSLGTQTYICNVNHKPSNTKVDKKVEPKSCDKTHTCPPCPAPELLGGPSVFLFPPKPKDTLMISRTPEVTCVVVDVSHEDPEVKFNWYVDGVEVHNAKTKPREEQYNSTYRVVSVLTVLHQDWLNGKEYKCKVSNKALPAPIEKTISKAKGQPREPQVYTLPPSRDELTKNQVSLWCLVKGFYPSDIAVEWESNGQPENNYDTTPPVLDSDGSFFLYSDLTVDKSRWQQGNVFSCSVMHEALHNHYTQKSLSLSPGK
light: ELVMTQSPSSLTVTAGEKVTMSCKSSQSLLNSGNQKNYLTWYQQKPGQPPKLLIYWASTRESGVPDRFTGSGSGTDFTLTISSVQAEDLAVYYCQNDYSYPLTFGAGTKLEIKRTVAAPSVFIFPPSDEQLKSGTASVVCLLNNFYPREAKVQWKVDNALQSGNSQESVTEQDSKDSTYSLSSTLTLSKADYEKHKVYACEVTHQGLSSPVTKSFNRGEC
chain: not shown
notes: Heterodimer of one anti-EpCAM heavy/light chain pair (IgG form) and one anti-CD3 ScFv-Fc; also called EpCAM×CD3 MSBODY; EpCAM×CD3 MSBODY bispecific antibody
With B1, the “ratio of bifluorescence via flow cytometer detection (double positive CFSE-HCT116 / PKH-26-Jurkat cells)” value in experiment [1] and in experiment [2] was 27.5% throughout. The figures for the Kd in experiment [3] and in experiment [4] were 0.0143 µM and 0.0096 µM, respectively.
